Laboratory results taken from patent US8383581B2, “Short-chain peptides as parathyroid hormone (PTH) receptor agonist” (Cadila Healthcare Limited, priority 2009, dated 2013).
Where no end group is shown, it is not given here. [ ]: non-standard residue; d: D form. Arg(NO2) = N=C(NCCC[C@H](N)C(=O)O)N[N+](=O)[O-]; αMePhe(2,6-F2) = C[C@](N)(Cc1c(F)cccc1F)C(=O)O; αMePhe(2-F) = C[C@](N)(Cc1ccccc1F)C(=O)O; hArg = N=C(N)NCCCC[C@H](N)C(=O)O; αMeF = C[C@](N)(Cc1ccccc1)C(=O)O; Cit = NC(=O)NCCC[C@H](N)C(=O)O; Nle = CCCC[C@H](N)C(=O)O; Orn = NCCC[C@H](N)C(=O)O; Ac5c = NC1(C(=O)O)CCCC1; Ac3c = NC1(C(=O)O)CC1; Aib = CC(C)(N)C(=O)O

T1: rat PTH-1R (rat PTHR endogenously expressed on UMR-106 rat osteosarcoma cells) (rat, UniProt P25961 27-591)
T1 sequence (looked up): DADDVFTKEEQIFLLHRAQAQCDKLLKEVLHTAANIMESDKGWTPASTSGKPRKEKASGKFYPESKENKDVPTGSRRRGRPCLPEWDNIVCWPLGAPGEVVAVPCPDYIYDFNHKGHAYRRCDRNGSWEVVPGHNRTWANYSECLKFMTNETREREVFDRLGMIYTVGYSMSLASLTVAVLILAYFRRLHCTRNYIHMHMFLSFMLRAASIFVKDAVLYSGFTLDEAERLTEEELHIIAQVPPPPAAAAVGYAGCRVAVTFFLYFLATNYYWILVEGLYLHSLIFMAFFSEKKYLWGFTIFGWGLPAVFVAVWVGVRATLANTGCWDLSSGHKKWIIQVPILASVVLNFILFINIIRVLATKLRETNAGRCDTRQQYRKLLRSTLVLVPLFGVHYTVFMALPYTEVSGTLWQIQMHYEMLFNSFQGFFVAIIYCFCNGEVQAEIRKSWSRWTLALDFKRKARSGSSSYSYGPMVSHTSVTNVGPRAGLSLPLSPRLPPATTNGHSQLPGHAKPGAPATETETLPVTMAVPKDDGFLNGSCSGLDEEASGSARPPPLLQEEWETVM


Target: T1, rat PTH-1R (rat PTHR endogenously …)
Test: cell-based or functional assay

Binder	cAMP released with respect to control, 1 nM peptide, UMR-106 cells	cAMP released with respect to control, 10 nM peptide, UMR-106 cells	cAMP released with respect to control, 100 nM peptide, UMR-106 cells
[Ac3c]V[Aib]EIQL[Nle]HQ[hArg][Aib]K[αMeF] [Seq. ID. 15]	28 percent of control	78 percent of control	99 percent of control
[Aib]V[Ac5c]EIQ[αMePhe(2,6-F2)][Nle]HQ[hArg][Aib][Arg(NO2)][αMePhe(2-F)] [Seq. ID. 256]	28 percent of control	71 percent of control	87 percent of control
[Aib]V[Aib]EIQ[αMePhe(2,6-F2)][Nle]HQ[hArg][Aib][αMePhe(2,6-F2)][αMePhe(2-F)] [Seq. ID. 212]	34 percent of control	88 percent of control	116 percent of control
[Ac5c]V[Ac5c]EIQ[αMePhe(2,6-F2)][Nle]HQ[hArg][Aib][Aib][αMePhe(2,6-F2)] [Seq. ID. 198]	32 percent of control	71 percent of control	99 percent of control
[Aib]V[Aib]EIQ[αMePhe(2,6-F2)][Nle]HQ[hArg]A[Arg(NO2)][αMePhe(2,6-F2)] [Seq. ID. 271]	46 percent of control	108 percent of control	116 percent of control
[Ac5c]V[Ac5c]EIQ[αMePhe(2,6-F2)][Nle]HQ[hArg][Aib][αMePhe(2,6-F2)][αMePhe(2,6-F2)] [Seq. ID. 238]	38 percent of control	91 percent of control	120 percent of control

Other lines, results leading:

cAMP released with respect to control, 1 nM peptide, UMR-106 cells	cAMP released with respect to control, 10 nM peptide, UMR-106 cells	cAMP released with respect to control, 100 nM peptide, UMR-106 cells	Binder
38 percent of control	98 percent of control	116 percent of control	[Aib]V[Aib]EIQ[αMePhe(2,6-F2)][Nle]HQ[Orn]A[αMePhe(2,6-F2)][αMePhe(2,6-F2)] [Seq. ID. 325]
21 percent of control	51 percent of control	69 percent of control	[Aib]V[Aib]EIQ[αMePhe(2-F)][Nle]HQ[Cit][Aib][Cit][αMePhe(2-F)] [Seq. ID. 346]
38 percent of control	79 percent of control	119 percent of control	[Ac5c]V[Aib]EIQ[αMePhe(2,6-F2)][Nle]HQ[Cit]A[Cit][αMePhe(2-F)] [Seq. ID. 351]
26 percent of control	68 percent of control	86 percent of control	[Ac5c]V[Aib]EIQ[αMePhe(2,6-F2)][Nle]HQ[Orn]A[Aib][αMePhe(2,6-F2)] [Seq. ID. 311]
39 percent of control	104 percent of control	120 percent of control	[Ac5c]V[Aib]EIQ[αMePhe(2-F)][Nle]HQ[Orn][Aib][Cit][αMePhe(2,6-F2)] [Seq. ID. 292]
18 percent of control	51 percent of control	72 percent of control	[Aib]V[Aib]EIQ[αMePhe(2-F)][Nle]HQ[Orn][Aib][Arg(NO2)][αMePhe(2-F)] [Seq. ID. 330]
